T1: Endonuclease Q from Pyrococcus furiosus (Pyrococcus furiosus (endogenous in P. …, UniProt Q8U0N5 1-424))
T1 sequence (looked up): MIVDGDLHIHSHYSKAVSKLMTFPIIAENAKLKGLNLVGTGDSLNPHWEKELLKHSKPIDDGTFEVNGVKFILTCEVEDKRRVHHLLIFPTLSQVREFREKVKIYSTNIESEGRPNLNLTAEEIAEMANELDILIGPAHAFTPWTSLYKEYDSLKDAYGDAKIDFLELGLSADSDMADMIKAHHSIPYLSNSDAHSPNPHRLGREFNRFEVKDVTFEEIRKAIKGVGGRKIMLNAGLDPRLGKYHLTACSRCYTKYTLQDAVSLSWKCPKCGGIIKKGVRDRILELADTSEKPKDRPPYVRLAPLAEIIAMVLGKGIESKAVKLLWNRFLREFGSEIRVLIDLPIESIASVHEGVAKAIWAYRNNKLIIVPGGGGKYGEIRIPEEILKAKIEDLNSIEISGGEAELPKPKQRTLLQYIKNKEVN

T2: Endonuclease Q from Thermococcus kodakarensis, wild type (Thermococcus kodakarensis, UniProt Q5JI33 1-421)
T2 construct: Endonuclease Q (EndoQ), Thermococcus kodakarensis KOD1, locus TK0887, GenBank BAD85076; printed MW 48080.3; the C-terminal truncation removes residues 409-421, so the chain ends at 421; no tag is named; also called TkoEndoQ; TkoEndoQ^WT; source: E. coli, purified (as described previously)
T2 sequence (looked up): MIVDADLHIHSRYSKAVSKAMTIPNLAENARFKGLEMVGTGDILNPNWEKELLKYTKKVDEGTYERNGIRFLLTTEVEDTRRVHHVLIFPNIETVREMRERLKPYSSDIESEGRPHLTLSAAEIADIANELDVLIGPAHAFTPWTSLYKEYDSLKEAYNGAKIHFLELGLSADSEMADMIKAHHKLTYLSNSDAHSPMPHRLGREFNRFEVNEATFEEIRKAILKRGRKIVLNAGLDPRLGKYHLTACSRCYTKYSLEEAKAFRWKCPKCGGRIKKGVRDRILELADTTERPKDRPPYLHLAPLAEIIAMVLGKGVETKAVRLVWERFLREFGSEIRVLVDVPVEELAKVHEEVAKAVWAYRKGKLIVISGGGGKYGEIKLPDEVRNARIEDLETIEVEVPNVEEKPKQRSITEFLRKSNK


What was measured:
[1] = target: T1, Endonuclease Q from Pyrococcus furiosus; experiment: cell-based or functional assay
[2] = target: T2, Endonuclease Q from Thermococcus …; experiment: SPR; Biacore J; TkoPCNA1 immobilised on a CM5 chip, TkoEndoQ injected (12-800 nM, 120 s); 25 °C; 10 mM HEPES pH 7.4, 0.4 M NaCl, 0.005% Tween20; 1:1 reaction model; apparent KD; conditions: both partners purified
[3] = target: the molecule itself; experiment: SEC; gel filtration of purified TkoPCNA1 proteins; 160 μM

| stimulation of the endonuclease activity of purified PfuEndoQ on dI-containing DNA by purified PfuPCNA (0.18 M NaCl) [1] [fold] | Kd [2] [nM] | Binder | binding result [3] |
| --- | --- | --- | --- |
| 6 to 7 | – | Proliferating cell nuclear antigen from Pyrococcus furiosus (natural protein, UniProt O73947 1-249, looked up) MPFEIVFEGAKEFAQLIDTASKLIDEAAFKVTEDGISMRAMDPSRVVLIDLNLPSSIFSKYEVVEPETIGVNMDHLKKILKRGKAKDTLILKKGEENFLEITIQGTATRTFRVPLIDVEEMEVDLPELPFTAKVVVLGEVLKDAVKDASLVSDSIKFIARENEFIMKAEGETQEVEIKLTLEDEGLLDIEVQEETKSAYGVSYLSDMVKGLGKADEVTIKFGNEMPMQMEYYIRDEGRLTFLLAPRVEE | – |
| – | 55 | Proliferating cell nuclear antigen 1 from Thermococcus kodakarensis, wild type (natural protein, UniProt Q5JF32 1-249, looked up, PCNA1 (DNA polymerase sliding clamp 1), Thermococcus kodakarensis, locus TK0535; printed MW 28239.4; also called TkoPCNA1; TkoPCNA1^WT; source: E. coli, purified (as described previously)) MPFEVVFDGAKEFADLIATASNLIDEAAFKFTEEGISMRAMDPSRVVLIDLNLPESIFSKYEVEEPETIGINMDQFKKILKRGKAKDTLILRKGDENFLEITFEGTAKRTFRLPLIDVEELELELPELPFTAKVVLLGEVLKEGIKDASLVSDAIKFIAKENEFTMKAEGETNEVEIRLTLEDEGLLDLEVEEETKSAYGIRYLSDMVKGIGKADEVILRFGNEMPLQMEYMIRDEGRLTFLLAPRVEE | binds |

— PMC4858679, “PCNA is involved in the EndoQ-mediated DNA repair process in Thermococcales” (Scientific Reports, 2016)
